In article PMC12775124, “CUL4A-DDB1-DCAF10 is an N-recognin for N-terminally acetylated Src kinases” (Nature Communications, 2026):

T1: GST-DCAF10 (UniProt Q5QP82 1-559)
T1 construct: DCAF10, full length; the UniProt entry is printed for the AlphaFold 3 model of the same protein; cloning and purification are in the Supplementary Methods; also called purified full-length GST-DCAF10; source: purified
T1 sequence (looked up): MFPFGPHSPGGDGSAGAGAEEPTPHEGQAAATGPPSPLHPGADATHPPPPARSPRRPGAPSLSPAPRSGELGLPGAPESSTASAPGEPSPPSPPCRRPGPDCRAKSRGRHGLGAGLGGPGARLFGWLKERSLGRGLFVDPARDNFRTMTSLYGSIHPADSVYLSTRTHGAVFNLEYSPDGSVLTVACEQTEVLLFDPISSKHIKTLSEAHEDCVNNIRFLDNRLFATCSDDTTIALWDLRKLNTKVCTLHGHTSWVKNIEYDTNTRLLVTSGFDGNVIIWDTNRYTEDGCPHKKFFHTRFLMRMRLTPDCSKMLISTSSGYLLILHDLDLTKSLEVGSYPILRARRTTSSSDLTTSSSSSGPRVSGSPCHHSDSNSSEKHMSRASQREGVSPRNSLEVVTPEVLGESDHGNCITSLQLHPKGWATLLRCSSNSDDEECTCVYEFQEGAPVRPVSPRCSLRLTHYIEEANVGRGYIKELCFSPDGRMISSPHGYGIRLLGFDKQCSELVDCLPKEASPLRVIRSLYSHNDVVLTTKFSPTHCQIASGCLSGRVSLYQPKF

T2: Ac-Lyn^G2A peptide (human, UniProt P07948 2-11, G2A)
T2 construct: Lyn, N-terminal 10-mer without the initiator Met, G2A; Lys3 spacer that carries the C-terminal biotin; also called Ac-Ala peptide; source: synthetic peptide
T2 peptide: Ac-ACIKSKGKDSKKK-biotin

B1: Nt-acetylated Fyn peptide (peptide)
peptide: Ac-GCVQCKDKEAKKK-biotin
modifications: cysteine pairing not given here
notes: Fyn, N-terminal 10-mer without the initiator Met; Lys3 spacer that carries the C-terminal biotin; also called Nt-Ac Fyn; Ac-Fyn; source: synthetic peptide
B2: Nt-acetylated Lyn peptide (peptide)
peptide: Ac-GCIKSKGKDSKKK-biotin
notes: Lyn, N-terminal 10-mer without the initiator Met; Lys3 spacer that carries the C-terminal biotin; also called Nt-Ac Lyn; Ac-Lyn; source: synthetic peptide
B3: Nt-acetylated Src peptide (peptide)
peptide: Ac-GSNKSKPKDAKKK-biotin
notes: Src, N-terminal 10-mer without the initiator Met; Lys3 spacer that carries the C-terminal biotin; also called Nt-Ac Src; Ac-Src; source: synthetic peptide
B4: DDB1- and CUL4A-associated factor 10 (natural protein, human (endogenous in HeLa and DLD-1), UniProt Q5QP82 1-559, looked up)
chain: T1 sequence (looked up)
notes: DCAF10, endogenous protein of human cell lysates; also called DCAF10; WDR32; source: endogenous, HeLa lysate; endogenous, DLD-1 Lyn KO Flp-In T-REx cell lysate

Experiments:
GST-DCAF10 = molecular target: T1, GST-DCAF10; assay: pull-down; Nt-peptides bound to streptavidin beads incubated with purified GST-DCAF10 or GST alone; Western blots against GST, DCAF10 and streptavidin; n = 3; conditions: both partners purified
[1] = molecular target: B2; assay: affinity purification with mass spectrometry; biotinylated 10-mer Nt-peptides on magnetic streptavidin beads incubated with HeLa lysate; retained proteins digested on bead and quantified label-free by LC-MS (DIA); pairwise comparison of two peptides; n = 3; conditions: one partner purified
Ac-Lyn^G2A peptide = molecular target: T2, Ac-Lyn^G2A peptide; assay: as above; conditions: one partner purified
[2] = molecular target: B3; assay: as above; conditions: one partner purified

| binding result (GST-DCAF10) | fold stronger than Ac-THOC7 [1] [fold] | fold lower than the Ac-Gly peptide (Ac-Lyn^WT) (Ac-Lyn^G2A peptide) [fold] | log2 fold change (Nt-Ac against Nt-free Src peptide, Fig. 1c) [2] [log2] | Binder |
| --- | --- | --- | --- | --- |
| binds | – | – | – | B1 |
| binds | – | – | – | B2 |
| binds | – | – | – | B3 |
| – | ~57 | 15 | ~5 | B4 |
